Ends that are not written are not given here.
Tests used:
[1] = target: San1_(1–303) (lysine residues changed to arginines) (Saccharomyces cerevisiae) (UniProt P22470)
[2] = target: San1_(1–303) (lysine residues changed to arginines) (Saccharomyces cerevisiae) (UniProt P22470); remark: listed apart in the source
[3] = target: full-length San1 (lysine residues changed to arginines) (Saccharomyces cerevisiae) (UniProt P22470)

B1: San1 peptide, unlabeled (peptide)
peptide: Ac-CGSRRGSYNASSGEQMLSRTGFFLVLIVGQPLHNPVK
With B1 the limited proteolysis with chymotrypsin: stability of San1(1-303) with peptide substrate against without substrate [1] was 30 fold and the limited proteolysis: fraction of radiolabeled San1(1-303) intact with chymotrypsin after 30 min, with excess peptide substrate [1] was 50%.

B2: San1 peptide, radiolabeled (peptide)
peptide: Ac-CGSRRGSYNASSGEQMLSRTGFFLVLIVGQPLHNPVK
modifications: also: 32P phosphate added by cAMP-dependent protein kinase, residue not given here
Work on B2 yielded a multi-turnover ubiquitylation: fraction of peptide substrate ubiquitylated, same incubation period and 18:1 substrate to ligase ratio [2] of 15% and a multi-turnover ubiquitylation: fraction of peptide substrate ubiquitylated, 5 to 15 min, substrate to San1 ratios 6:1 to 18:1 [3] of 50%.
